Several values for one entry are separate records, joined by “and”; a condition that tells them apart may be missing. Identical values can stand only once. Like-named read-outs stand apart in the source and are kept apart here. Each block holds one molecule with its values, some of them ahead of it. Ends that are not written are not given here.
What was measured:
[1] = molecular target: T1, Duffy Antigen Receptor for Chemokines (DARC) (human) (UniProt Q16570); test: DARC binding; given as 'affinity constant'
T1 sequence (looked up): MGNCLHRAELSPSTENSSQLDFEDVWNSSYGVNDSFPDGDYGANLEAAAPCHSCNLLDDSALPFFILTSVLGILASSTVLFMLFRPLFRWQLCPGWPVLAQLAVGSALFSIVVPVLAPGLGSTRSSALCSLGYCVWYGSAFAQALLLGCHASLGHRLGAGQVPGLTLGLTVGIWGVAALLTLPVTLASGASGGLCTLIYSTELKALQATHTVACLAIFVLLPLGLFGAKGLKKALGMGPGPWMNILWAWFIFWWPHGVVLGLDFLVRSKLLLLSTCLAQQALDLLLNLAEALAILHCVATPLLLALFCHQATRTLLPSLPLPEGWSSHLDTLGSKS

[2] = molecular target: chemokine receptors on THP-1 cells; test: cell-based or functional assay
[3] = molecular target: T1, Duffy Antigen Receptor for Chemokines (DARC) (human); test: estimated ka for binding to red blood cells divided by inhibitory ED50 (THP-1 migration)
[4] = molecular target: chemokine receptors on THP-1 cells; test: binding to chemokine receptors on THP-1 cells; given as 'association constant'
[5] = molecular target: T1, Duffy Antigen Receptor for Chemokines (DARC) (human); test: estimated ka for binding to red blood cells divided by average inhibitory ED50 (THP-1 migration)
[6] = molecular target: T1, Duffy Antigen Receptor for Chemokines (DARC) (human); test: ka for red blood cells divided by ED50
[7] = molecular target: chemokine receptors on THP-1 cells; test: cell-based or functional assay; remark: listed apart in the source
[8] = molecular target: T2, Duffy Antigen Receptor for Chemokines (DARC) (human, UniProt Q16570 1-336); test: DARC binding on red blood cells
T2 construct: whole, on cells
T2 sequence (looked up): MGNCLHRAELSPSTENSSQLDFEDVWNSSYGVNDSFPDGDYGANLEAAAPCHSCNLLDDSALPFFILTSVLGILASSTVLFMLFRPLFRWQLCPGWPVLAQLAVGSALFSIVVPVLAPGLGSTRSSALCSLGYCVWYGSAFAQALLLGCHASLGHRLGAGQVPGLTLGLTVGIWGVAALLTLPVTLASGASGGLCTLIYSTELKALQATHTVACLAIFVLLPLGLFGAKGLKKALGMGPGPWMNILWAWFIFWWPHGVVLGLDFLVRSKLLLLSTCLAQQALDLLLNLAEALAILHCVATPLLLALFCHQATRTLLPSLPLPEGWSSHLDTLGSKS
Experimental: (§1) To overcome this difficulty, the ka for association of DARC with peptide 3(1–12)[MCP-1] (SEQ ID NO:1) and peptide 2(1–15)[MCP-1] […] After binding has reached equilibrium (30 minutes at 37° C.), the cells are separated from the unbound label by centrifugation for 5 minutes through a sucrose gradient. Counts associated with the cells are then determined by gamma-counting scintigraphy. […] Furthermore, Scatchard analysis confirms the presence of a single high affinity binding site with 500–1000 copies per cell, consistent with the known properties of DARC.

[9] = molecular target: chemokine receptors on THP-1 cells; test: cell-based or functional assay; remark: listed apart in the source
[10] = molecular target: T3, Duffy Antigen Receptor for Chemokines (DARC) (human), Q16570; test: estimated ka for binding to red blood cells divided by average inhibitory ED50 (THP-1 migration); conditions: remark: other sources report otherwise
T3 chain: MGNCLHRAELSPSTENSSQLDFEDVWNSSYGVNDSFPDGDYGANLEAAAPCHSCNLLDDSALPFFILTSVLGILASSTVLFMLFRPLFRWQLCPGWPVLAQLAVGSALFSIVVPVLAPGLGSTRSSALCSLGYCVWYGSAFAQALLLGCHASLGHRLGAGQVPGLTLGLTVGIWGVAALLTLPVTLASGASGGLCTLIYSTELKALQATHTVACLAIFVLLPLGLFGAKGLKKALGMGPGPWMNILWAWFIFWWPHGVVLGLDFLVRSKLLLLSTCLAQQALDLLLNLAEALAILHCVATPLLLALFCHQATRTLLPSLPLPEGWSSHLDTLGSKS

[11] = molecular target: chemokine receptors on THP-1 cells; test: estimated ka for binding to THP-1 cells (competition binding analysis), printed under 'AVERAGE ED50 (µM)'
[12] = molecular target: T4, Duffy Antigen Receptor for Chemokines (DARC) (human, UniProt Q16570 1-336); test: DARC binding
T4 chain: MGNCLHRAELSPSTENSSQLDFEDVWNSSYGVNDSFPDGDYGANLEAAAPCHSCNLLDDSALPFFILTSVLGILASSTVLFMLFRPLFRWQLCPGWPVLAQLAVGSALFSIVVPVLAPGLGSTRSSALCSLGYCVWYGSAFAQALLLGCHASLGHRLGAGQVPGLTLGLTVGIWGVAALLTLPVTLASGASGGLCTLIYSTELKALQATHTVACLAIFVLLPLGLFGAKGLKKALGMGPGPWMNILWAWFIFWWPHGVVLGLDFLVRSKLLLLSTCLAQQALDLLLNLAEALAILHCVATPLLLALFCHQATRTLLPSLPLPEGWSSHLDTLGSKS

[13] = molecular target: T2, Duffy Antigen Receptor for Chemokines …; test: competition binding analysis using red blood cells
Experimental: as §1

[14] = molecular target: T2, Duffy Antigen Receptor for Chemokines …; test: ka for binding to red blood cells divided by ka for binding to THP-1 cells
[15] = molecular target: T2, Duffy Antigen Receptor for Chemokines …; test: Duffy binding
Experimental: as §1

[16] = molecular target: T2, Duffy Antigen Receptor for Chemokines …; test: DARC binding
Experimental: as §1

[17] = molecular target: chemokine receptors on the surface of Jurkat cells; test: biotinylated peptide binding to Jurkat cells
[18] = molecular target: chemokine receptors on THP-1 cells; test: biotinylated derivative mixed with THP-1 cells

Kd [1]: 15 µM
% inhibition of migration induced by MCP-1 at 100 µM tripeptide [2]: 95%
% inhibition of migration induced by SDF1α at 100 µM tripeptide [2]: 29%
ED50 as inhibitor of MCP-1 induced THP-1 migration [2]: 2 to 5 µM
ED50 for inhibition of THP-1 migration induced by the one chemokine it is specific for (MCP-1) [2]: 6 µM
ED50 for inhibition of THP-1 migration versus MCP1 [2]: 7 µM
Duffy selectivity [3]: 22.3
Kd [4]: 0.5 µM and 1 µM
Molecule: Peptide 3(7-9)[MCP-1], i.e, KQK

Kd [1]: 2 µM
Duffy selectivity [5]: 24.8
Duffy selectivity [6]: 10
ED50 for inhibition of THP-1 migration versus IL8 [7]: < 1 µM
ED50 for inhibition of THP-1 migration versus MCP1 [7]: 8 µM
ED50 for inhibition of THP-1 migration versus MIP1α [7]: < 1 µM
ED50 for inhibition of THP-1 migration versus SDF1α [7]: < 1 µM
ED50 for inhibition of migration induced by IL-8 [7]: 1 µM
ED50 for inhibition of migration induced by MCP-1 [7]: 8 µM
ED50 for inhibition of migration induced by MIP1α [7]: 7.5 µM
ED50 for inhibition of migration induced by RANTES [7]: 1.5 µM
ED50 for inhibition of migration induced by SDF1α [7]: 2 µM
average ED50 for inhibition of THP-1 migration induced by each of the chemokines [7]: 2 µM
Molecule: WVQ [Peptide 3(10-12)[MCP-1], i.e., WVQ]

Kd [16]: 20 to 100 µM
Molecule: SYRRITSSKSPKEAV [Ser10 variant of peptide 2(1-15)[MCP-1]]

Kd [17]: 3 µM
Kd [18]: 1.9 µM
Molecule: SYRRITSSKCPKEAV (also: biotinylated, position not given here) [biotinylated peptide 2(1-15)[MCP-1]]

Further lines, the molecule ahead of its results:

Molecule: SYRRITSSK [Peptide 2(1-9)[MCP-1]]
Kd [8]: ~50 µM

Molecule: EICADPKQKWVQ [peptide 3(1-12)[MCP-1]]
% inhibition of THP-1 migration at 100 µM versus IL8 [9]: 103%
% inhibition of THP-1 migration at 100 µM versus MCP-1 [9]: 112%
% inhibition of THP-1 migration at 100 µM versus MIP1α [9]: 99%
% inhibition of THP-1 migration at 100 µM versus SDF-1α [9]: 107%
ED50 for inhibition of THP-1 migration versus IL8 [9]: 14 µM
ED50 for inhibition of THP-1 migration versus MCP-1 [9]: 8 µM
ED50 for inhibition of THP-1 migration versus MIP1α [9]: 8 µM
ED50 for inhibition of THP-1 migration versus SDF-1α [9]: 10 µM
average ED50 for inhibition of THP-1 migration induced by each of the chemokines [9]: 10 µM
inhibition of MCP-1 induced THP-1 migration at 100 µM, peptide incubated with the cells [9]: > 99%
inhibition of MCP-1 induced THP-1 migration at 100 µM, peptide incubated with the chemokine [9]: 17%
Duffy selectivity [10]: 1

B1: peptide 2(1-15)[MCP-1] (peptide)
peptide: SYRRITSSKCPKEAV
notes: synthetic linear L-form peptide; also called Pep2[MCP1]; Pep2(1-15)[MCP1]
Kd [11]: 2 µM
Kd [12]: 0.35 µM
ED50 for inhibition of chemokine-induced THP-1 migration [9]: > 100 µM
inhibition of chemokine-induced THP-1 migration at 100 µM [9]: 19%
promotion of THP-1 migration (agonist activity) [9]: 10 µM
Kd [13]: < 0.5 µM
Duffy selectivity [14]: 0.18 ratio
Kd [15]: 100 µM
